In paper PMC3832594, “The Neuroplastin Adhesion Molecules Are Accessory Proteins That Chaperone the Monocarboxylate Transporter MCT2 to the Neuronal Cell Surface” (PLoS ONE, 2013):

Biological target: T1, MCT2 tagged at its N-terminus with CFP (rat, UniProt Q63344 1-489)
T1 construct: Monocarboxylate transporter MCT2; also called MCT2-ECFP (N-terminal); MCT2-CFP; source: COS-7, transiently transfected (Fugene 6), in live cells; not shown: ECFP, N-terminal, kept
T1 sequence (looked up): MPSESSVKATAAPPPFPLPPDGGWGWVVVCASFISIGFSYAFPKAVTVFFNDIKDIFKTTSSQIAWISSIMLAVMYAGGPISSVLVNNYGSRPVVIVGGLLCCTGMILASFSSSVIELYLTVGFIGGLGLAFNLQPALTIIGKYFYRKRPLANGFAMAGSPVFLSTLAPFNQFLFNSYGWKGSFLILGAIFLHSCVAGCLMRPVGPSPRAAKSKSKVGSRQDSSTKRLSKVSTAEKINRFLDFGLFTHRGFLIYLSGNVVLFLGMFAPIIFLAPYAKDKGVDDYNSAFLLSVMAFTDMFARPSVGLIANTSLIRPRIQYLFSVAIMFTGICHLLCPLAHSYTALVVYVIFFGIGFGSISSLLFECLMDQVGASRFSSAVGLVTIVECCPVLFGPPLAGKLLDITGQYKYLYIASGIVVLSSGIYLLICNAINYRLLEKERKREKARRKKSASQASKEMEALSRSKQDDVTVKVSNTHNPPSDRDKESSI
Assay: FRET or BRET; live COS-7 cells co-transfected with MCT2-ECFP (N-terminal) and np55- or np65-EYFP (C-terminal), 48 h after transfection; 37°C, imaging buffer pH 7.4; ratio of emission at 480 nm to 530 nm on excitation at 430 nm (MCT2-CFP alone 1.33±0.016)
Details: partners not purified

B1: np65 C-terminally labelled with YFP (natural protein)
chain: not shown
notes: Neuroplastin np65, the form with 3 Ig domains; also called np65-EYFP (C-terminal); np65-YFP; source: COS-7, transiently transfected (Fugene 6), in live cells; not shown: EYFP, C-terminal, kept
- 480:530 nm fluorescence emission ratio (FRET): 0.792
